Results from publication PMC3034293 (Biochemistry, 2011).

Target: the molecule itself
Experiment: SEC

B1: Wild-type aldolase B (enzyme, human, UniProt P05062 1-364, looked up)
chain: MAHRFPALTQEQKKELSEIAQSIVANGKGILAADESVGTMGNRLQRIKVENTEENRRQFREILFSVDSSINQSIGGVILFHETLYQKDSQGKLFRNILKEKGIVVGIKLDQGGAPLAGTNKETTIQGLDGLSERCAQYKKDGVDFGKWRAVLRIADQCPSSLAIQENANALARYASICQQNGLVPIVEPEVIPDGDHDLEHCQYVTEKVLAAVYKALNDHHVYLEGTLLKPNMVTAGHACTKKYTPEQVAMATVTALHRTVPAAVPGICFLSGGMSEEDATLNLNAINLCPLPKPWKLSFSYGRALQASALAAWGGKAANKEATQEAFMKRAMANCQAAKGQYVHTGSSGAASTQSLFTACYTY
With B1 the “stoichiometry N” value was 4.
